Laboratory results as given in patent US20030232052A1 (CALIFORNIA INSTITUTE OF TECHNOLOGY, published 2003).
Where two headings read alike, the source gives them in different places.

Assays:
[1] = biological target: mutant Htt exon 1 with 103 polyQ repeats fused to EGFP (UniProt P42858); assay: cell-based or functional assay
[2] = biological target: T1, mutant Htt exon 1 with 103 polyQ repeats fused to EGFP (UniProt P42858 1-88; P42212 1-238 = GFP); assay: coimmunoprecipitation from 293 cell lysates with anti-Flag Ab, blot with anti-HD1-17
T1 construct: Expressed in 293 cells; Order of pieces follows 'Htt exon 1-EGFP'; also called PQ103
Description: The scFvs and IκBα in Triton X-100 cell extracts were precipitated with anti-Flag Ab, and the precipitates were subjected to SDS-PAGE.
Briefly, cells were harvested 24 hours after transfection and lysed by sonication in buffer A (25 mM Hepes, pH 7.4/2.5 mM MgCl₂/50 mM NaCl/1 mM EDTA/1% Triton X-100). After clearing the lysates by centrifugation at 14,300 rpm (Eppendorf microcentrifuge) for 10 minutes at 4° C., 200 μg of each lysate was incubated at 4° C. with rocking for 2 hours with a 40-μl slurry of anti-Flag Ab coupled to protein A beads. The beads were then washed five times in buffer A by using centrifugation at 5,000 rpm, and the complexes were resolved on SDS-PAGE. […] Secondary antibodies conjugated to horseradish peroxidase (HRP) were used to detect the reactive protein bands by enhanced chemiluminescence (Santa Cruz Biotechnology).

[3] = biological target: mutant Htt exon 1 with 103 polyQ repeats fused to EGFP (UniProt P42858); assay: cell-based or functional assay; remark: listed apart in the source

## Flag-tagged MW2 scFv expressed in 293 cells
[1]
  SDS-insoluble aggregated Htt, scanned band at the top of the gel (no scFv: 48.8) (arbitrary units): 54.3
  increase in mutant Htt-induced TUNEL staining (TUNEL+ cells), 293 cells: 67%

B1: Flag-tagged IκBα (other, UniProt P25963 1-317, looked up, not shown: small tags and cut ends)
chain: MFQAAERPQEWAMEGPRDGLKKERLLDDRHDSGLDSMKDEEYEQMVKELQEIRLEPQEVPRGSEPWKQQLTEDGDSFLHLAIIHEEKALTMEVIRQVKGDLAFLNFQNNLQQTPLHLAVITNQPEIAEALLGAGCDPELRDFRGNTPLHLACEQGCLASVGVLTQSCTTPHLHSILKATNYNGHTCLHLASIHGYLGIVELLVSLGADVNAQEPCNGRTALHLAVDLQNPDLVSLLLKCGADVNRVTYQGYSPYQLTWGRPSTRIQQQLGQLTLENLQMLPESEDEESYDTESEFTEFTEDELPYDDCVFGGQRLTL
notes: Order of pieces follows the name Flag-IκBα; also called Flag-IκBα
[2]
  binding result: no binding

B2: Flag-tagged MW7 scFv expressed in 293 cells (scFv)
scFv: MDYKDDDDKVAQVKLQESGGGLVQPGGSMKLSCAASGFTFSDAWMDWVRQSPEKGLSGVAEIRSKANNHATYYAESVKGRFTISRDDSKSSVYLQMNSLRAEDTGIYYCIYAGFAYWGQGTTVTVSSGGGGSGGGGSGGGGSDIELTQSPSSLAMSVGQKVTMSCKSSQSLLNSSNQKNYLAWYQQKPGQSPKLLVYFASTRESGVPDRFIGSGSGTDFTLTISSVQAEDLADYFCQQHYSTPWTFGGGTKLEIK
[3]
  SDS-insoluble aggregated Htt, scanned band at the top of the gel (no scFv: 48.8) (arbitrary units): 0.2
